Experiment [1] addresses HLA-B*07:0 (Homo sapiens, UniProt P01889). Put plainly: MHC binding assay, UV-ligand exchange ELISA. As to conditions: peptide exchange yield, binding to HLA-B*07:0. The text has this:
(§1) Candidate peptides for T cell based therapies according to the present invention were further tested for their MHC binding capacity (affinity). The individual peptide-MHC complexes were produced by UV-ligand exchange, where a UV-sensitive peptide is cleaved upon UV-irradiation and exchanged with the peptide of interest as analyzed. Only peptide candidates that can effectively bind and stabilize the peptide-receptive MHC molecules prevent dissociation of the MHC complexes. To determine the yield of the exchange reaction, an ELISA was performed based on the detection of the light chain (β2m) of stabilized MHC complexes. The assay was performed as generally described in Rodenko et al. (Rodenko et al., 2006).
(§2) 96 well MAXISorp plates (NUNC) were coated over night with 2 μg/ml streptavidin in PBS at room temperature, washed 4× and blocked for 1 h at 37° C. in 2% BSA containing blocking buffer. Refolded HLA-A*02:01/MLA-001 monomers served as standards, covering the range of 15-500 ng/ml. Peptide-MHC monomers of the UV-exchange reaction were diluted 100-fold in blocking buffer. Samples were incubated for 1 h at 37° C., washed four times, incubated with 2 μg/ml HRP conjugated anti-82m for 1 h at 37° C., washed again and detected with TMB solution that is stopped with […]. Absorption was measured at 450 nm. Candidate peptides that show a high exchange yield (preferably higher than 50%, most preferred higher than 75%) are generally preferred for a generation and production of antibodies or fragments thereof, and/or T cell receptors or fragments thereof, as they show sufficient avidity to the MHC molecules and prevent dissociation of the MHC complexes.
A general note: ELISA stands for enzyme-linked immunosorbent assay.

The test system of experiment [2] is HLA-A*01:01, HLA-A*02:01, HLA-A*03:01, HLA-A*24:02, HLA-B*07:02, HLA-B*08:01 and HLA-B*44:02. Put plainly: HLA alleles the peptides bind to (Table 7). Type of experiment: binding, human. Particulars: allotype from the group HLA-A*01:01, HLA-A*02:01, HLA-A*03:01, HLA-A*24:02, HLA-B*07:02, HLA-B*08:01, HLA-B*44:02. The source says: However, due to similarities in binding pattern such as the relevant anchoring positions some peptides bind to more than one allele, such an overlap is most likely, but not limited to, HLA-A*01 binding peptides also binding to HLA-B*15, HLA-A*03 binding peptides also binding to HLA-A*11, HLA-B*07 binding peptides also binding to HLA-B*35 and HLA-B*51.

The target of experiment [3] is HLA-A*24:02 (Homo sapiens, UniProt P04439, D101N/D140Y/D185E/E176V/E190D/F33S/G103R/G107R/I119L/I121M/I306V/K335N/L105A/L180Q/L300P/N151K/N90K/Q86E/Q94H/R106L/R138H/R89G/T104I/T345S/V100E/W191G/Y123F). Put plainly: MHC binding assay, UV-ligand exchange ELISA. Particulars: peptide exchange yield, binding to HLA-A*24:02.
Text: as §1, §2

Experiment [4] has as its target HLA-A*03:01 (Homo sapiens, UniProt P04439). Put plainly: MHC binding assay, UV-ligand exchange ELISA. Particulars: peptide exchange yield, binding to HLA-A*03:01.
Text: as §1, §2

53 substances from US11957716B2 (Immatics Biotechnologies GmbH, priority 2021, dated 2024) can be followed below.

Consider “155 (MPWVLMSPF; listed as Homo sapiens) [compound 155]”, for which, in experiment [1], the Peptide exchange result is listed as “++++ (≥75% = ++++)”.
Same read-out and setting: the same measure for “157 (APLRAGWAA; listed as Homo sapiens) [compound 157]”: “++++ (≥75% = ++++)”; for “184 (VVHGGMSIF; listed as Homo sapiens) [compound 184]”: “++ (≥20% = ++)”; for “64 (LPTRSLPAF; listed as Homo sapiens) [compound 64]”: “+++ (≥50% = +++)”.
On the same count and under the same terms, the same measure for “63 (MPANFETIGF; listed as Homo sapiens) [compound 63]”: “++++ (≥75% = ++++)”; for “191 (APLLPGPAA; listed as Homo sapiens) [compound 191]”: “++++ (≥75% = ++++)”.
“177 (SYLKDHLSL; listed as Homo sapiens) [compound 177]”: in experiment [2], the “Binders (HLA alleles the peptides according to the invention bind to)” value (shortened to “Binders”) is on record as “HLA-A*24:02”. Moreover, in experiment [3], the Peptide exchange entry is listed as “++++ (75% = ++++)”.
“192 (IPLHFSTAF; listed as Homo sapiens) [compound 192]”: the Peptide exchange entry in experiment [1] is on record as “++++ (≥75% = ++++)”.
With “133 (KFPPSASEF; listed as Homo sapiens) [compound 133]”, in experiment [2], the “Binders” value is “HLA-A*24:02”. Also, in experiment [3], the Peptide exchange result is reported as “++++ (75% = ++++)”.
Consider “111 (RPIWDVRSA; listed as Homo sapiens) [compound 111]”, for which, in experiment [1], the Peptide exchange result is reported as “++++ (≥75% = ++++)”.
As for “215 (TPLTRTTL; listed as Homo sapiens) [compound 215]”, the Peptide exchange result in experiment [1] is “+++ (≥50% = +++)”.
On the same count and under the same terms, the same measure for “182 (RPSLPCRSF; listed as Homo sapiens) [compound 182]”: “+++ (≥50% = +++)”.
The same measure, in the same setting: under “210 (ASRIQVILL; listed as Homo sapiens) [compound 210]” stands “+++ (≥50% = +++)”.
Still for that read-out and setting: under “52 (SPLPHLGPL; listed as Homo sapiens) [compound 52]” stands “+++ (≥50% = +++)”; under “77 (YPDVPIGQL; listed as Homo sapiens) [compound 77]”, “+++ (≥50% = +++)”; under “41 (APQPRSLAA; listed as Homo sapiens) [compound 41]”, “++++ (≥75% = ++++)”.
Take “59 (AVDLGVLEL; listed as Homo sapiens) [compound 59]”: in experiment [1], the Peptide exchange entry is “+++ (≥50% = +++)”.
As for “126 (NPELLVILL; listed as Homo sapiens) [compound 126]”, the Peptide exchange result in experiment [1] is listed as “+++ (≥50% = +++)”.
“140 (QPAPQPLL; listed as Homo sapiens) [compound 140]”: the Peptide exchange entry in experiment [1] is listed as “+++ (≥50% = +++)”.
On the same count and under the same terms, the same measure for “96 (HPRESLNMLVAF; listed as Homo sapiens) [compound 96]”: “++++ (≥75% = ++++)”.
The same measure, in the same setting: under “109 (MPKLFLTAC; listed as Homo sapiens) [compound 109]” stands “++++ (≥75% = ++++)”.
Still for that read-out and setting: the same measure for “89 (SPSSPLLLLA; listed as Homo sapiens) [compound 89]”: “+++ (≥50% = +++)”; for “175 (MPFLKVPPL; listed as Homo sapiens) [compound 175]”: “++++ (≥75% = ++++)”; for “129 (IPISIFKMA; listed as Homo sapiens) [compound 129]”: “+++ (≥50% = +++)”.
For “103 (RPWLSSPTGL; listed as Homo sapiens) [compound 103]”, in experiment [1], the Peptide exchange entry was “++++ (≥75% = ++++)”.
Still for that read-out and setting: the same measure for “124 (SPSSNSREL; listed as Homo sapiens) [compound 124]”: “+++ (≥50% = +++)”.
The same measure, in the same setting: the same measure for “110 (APSLARFLSL; listed as Homo sapiens) [compound 110]”: “++++ (≥75% = ++++)”; for “114 (VPHHLLSSV; listed as Homo sapiens) [compound 114]”: “++++ (≥75% = ++++)”.
Regarding “78 (TPSHSTPSF; listed as Homo sapiens) [compound 78]”, the Peptide exchange entry in experiment [1] was “+++ (≥50% = +++)”.
Same read-out and setting: the same measure for “199 (RAPLPLLLL; listed as Homo sapiens) [compound 199]”: “+++ (≥50% = +++)”; for “208 (YVGPTRLEL; listed as Homo sapiens) [compound 208]”: “++++ (≥75% = ++++)”; for “162 (LPVHGPLPLLL; listed as Homo sapiens) [compound 162]”: “+++ (≥50% = +++)”.
Take “169 (RPQGVGPAA; listed as Homo sapiens) [compound 169]”: the Peptide exchange entry in experiment [1] is reported as “++++ (≥75% = ++++)”.
Turning to “156 (SLRVPSPAL; listed as Homo sapiens) [compound 156]”, in experiment [1], the Peptide exchange entry is “+++ (≥50% = +++)”.
On the same count and under the same terms, the same measure for “66 (RPLILIRI; listed as Homo sapiens) [compound 66]”: “++ (≥20% = ++)”.
Turning to “120 (APGPRSQGL; listed as Homo sapiens) [compound 120]”, the Peptide exchange result in experiment [1] is reported as “+++ (≥50% = +++)”.
Same read-out and setting: the same measure for “93 (SPIGLSLIL; listed as Homo sapiens) [compound 93]”: “++++ (≥75% = ++++)”; for “214 (RPSPVRVAAL; listed as Homo sapiens) [compound 214]”: “++++ (≥75% = ++++)”; for “207 (LPALLRSL; listed as Homo sapiens) [compound 207]”: “++++ (≥75% = ++++)”.
On the same count and under the same terms, under “134 (MPCTTILRI; listed as Homo sapiens) [compound 134]” stands “++++ (≥75% = ++++)”; under “15 (SPVETRSLL; listed as Homo sapiens) [compound 15]”, “+++ (≥50% = +++)”; under “185 (MPAFLSRASAL; listed as Homo sapiens) [compound 185]”, “++++ (≥75% = ++++)”.
For the substance “202 (KLLLLSSVK; listed as Homo sapiens) [compound 202]”, in experiment [2], the “Binders” value is “HLA-A*03:01”. In experiment [4], the Peptide exchange result is on record as “+++ (≥50% = +++)”.
On to “137 (MPIQVLKGL; listed as Homo sapiens) [compound 137]”, for which the Peptide exchange entry in experiment [1] is recorded as “++++ (≥75% = ++++)”.
For “203 (AILVPQPPK; listed as Homo sapiens) [compound 203]”, the “Binders” value in experiment [2] is “HLA-A*03:01”. Moreover, in experiment [4], the Peptide exchange result is “+++ (≥50% = +++)”.
Consider “100 (SPAPSLARFLSL; listed as Homo sapiens) [compound 100]”, for which, in experiment [1], the Peptide exchange entry is given as “++++ (≥75% = ++++)”.
For the substance “21 (MLSAQFILK; listed as Homo sapiens) [compound 21]”, the “Binders” value in experiment [2] is on record as “HLA-A*03:01”. Besides, in experiment [4], the Peptide exchange result is recorded as “++++ (≥75% = ++++)”.
Taken in the same sequence, the figures for “25 (GVCSTLTIK; listed as Homo sapiens) [compound 25]” were “HLA-A*03:01” and “++++ (≥75% = ++++)”.
For “112 (ETYGTFVLR; listed as Homo sapiens) [compound 112]” the same measures were “HLA-A*03:01” and “+++ (≥50% = +++)”.
For “70 (LIAGLIFLK; listed as Homo sapiens) [compound 70]” the same measures were “HLA-A*03:01” and “+++ (≥50% = +++)”.
Consider “85 (LPHPVNSGL; listed as Homo sapiens) [compound 85]”, for which, in experiment [1], the Peptide exchange entry is on record as “+++ (≥50% = +++)”.
With “55 (SPVSASWIL; listed as Homo sapiens) [compound 55]”, the Peptide exchange result in experiment [1] is on record as “++++ (≥75% = ++++)”.
Take “178 (SLFGGLFTR; listed as Homo sapiens) [compound 178]”: in experiment [2], the “Binders” value is “HLA-A*03:01”. Besides, the Peptide exchange entry in experiment [4] was “++++ (≥75% = ++++)”.
